The source of these data is publication PMC4742278 (2016).

Test [1] addresses T1, EBNA2_(381–389) peptide with an additional Gly-Tyr dipeptide at the C-terminus (NH2-[…]-CONH2) (Epstein-Barr virus, strain B95-8, C-terminal amide (CONH2)). Put plainly: ITC.
For test [2], the target named is T1, EBNA2_(381–389) peptide with an …. Kind of test: ITC; N fixed to 1. In general terms: In ITC the heat of successive injections is recorded.

B1: BS69_(MYND) Y532A (domain or fragment)
chain: QTKKKQWCYNCEEEAMAHCCWNTSYCSIKCQQEHWHAEHKRTCRRKR
In the case of B1, the Kd in test [1] was determined as 64.5 µM.

B2: BS69_(MYND) R560A (domain or fragment)
chain: QTKKKQWCYNCEEEAMYHCCWNTSYCSIKCQQEHWHAEHKRTCRAKR
B2 returned an equilibrium dissociation constant (Kd) in test [2] of around 279 µM.

A word on the Kd: it is the equilibrium constant for the complex coming apart. Low readings indicate a tighter complex, high ones a looser complex.
